Data from the nanobody polyreactivity screen of Harvey et al. (2022).

Test: yeast display, Sf9 membrane polyspecificity reagent, FACS + sequencing; frameworks hold sequencing errors
Procedure, shortened: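 Polyreactivity labels are assigned by the sorting gate from which each nanobody was recovered. The gates were low and high (top ~1%), set on anti-HA fluorescence for expression and streptavidin fluorescence for reagent binding. Before sorting, galactose-induced (36–48 hours) yeast display cells were stained for 1 hour at 4 °C with 10% biotinylated, detergent-solubilized Sf9 membrane reagent.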

Row | Sequence | polyreactivity (PSR sort gate)
1 | QVQLVESGGGLVQAGGSLRLSCAASGRIFDWYAMGWYRQAPGKERELVAAITTSADRTYYADSVKGRFTISRDNAKNTVYLQMNSMKPEDTAVYYCNADAFGGYDEYDYWGQGTQVTVSS | low polyreactivity
2 | QVQLVESGGGLVQAGGSLRLSCAASGRIFDYNAMGWYRQAPAKERELVAAITWSGGSTHYADSVKGRFTISRDNAKNTVYLQMKSLKPEDTAVYYCAADIGGDYLVFYYRGGYDYWGQGNQVTVSS | low polyreactivity
3 | QVQLVESGGGLVQAGGSLRLSCAASGRIFDYNAMGWYRQAPGKERELVAAINSGGSTYADSVKGRFTISRDNAKNTVYLQMNSLNPEDTAVYYCAKSLGQTDWEYDSWGQGTQVTVSS | low polyreactivity
4 | QVQLVESGGGLVQAGGSLRLSCAASGRIFDYNDMGWYRQAPGTERELVAGISSGGSTYYADSVKGRFTISRDNAKNTVYLQMNSLKPEDTAVYYCAAGGRPYRGYGYWGQGTQVTVSS | high polyreactivity
5 | QVQLVESGGGLVQAGGSLRLSCAASGRIFDYNTMGWYRQAPGKERELVAAITGGTGSTYYADSVKGRFTISRDNAKNTVYLQMNSLKPEDTAVYYCAAGFHKRVSPEILYDYWGQGTLVTVSS | low polyreactivity
6 | QVQLVESGGGLVQAGGSLRLSCAASGRIFDYNVMGWYRQAPGKERELVADINGSGGGTNYADSVKGRFTISRDNAKNTVYLQINTLKPEDTAVYYCNADSYEYHVPYYDYRYDYCGQGTQVTVSS | low polyreactivity
7 | QVQLVESGGGLVQAGGSLRLSCAASGRIFDYYAMAWYRQAPGKERELVSAISSNGVSTYYADSVKGRFTISRDNPKNTVYLQMNSLKPEDTAVYYCAADPTRHSSFPQYDSWGQGTQVTVSS | low polyreactivity
8 | QVQLVESGGGLVQAGGSLRLSCAASGRIFDYYAMGSYRQAPGNERELVDAISSGDNTYYADSVKGRFTISRDNAKNTVYLQMNSLKPEDTAVYYCAADVSRFGYYGIGFYYWRQGTQVTVSS | low polyreactivity
9 | QVQLVESGGGLVQAGGSLRLSCAASGRIFDYYAMGWYRQAPGKERELVAAISLIGASTYYADSVKGRFTISRDNAKNSVYLQMNSLKQEDPAVDYCAAQYAFEVPGYYREDYYWGQGTQVTVSS | low polyreactivity
10 | QVQLVESGGGLVQAGGSLRLSCAASGRIFDYYAMGWYRQAPGKERELVAGITSDGDITYYADSVKGRFTISRDNAKNTVYLQMNSLKPEDTAVYYCAADSPHPVRYDYWGQGTQVTVSS | low polyreactivity
11 | QVQLVESGGGLVQAGGSLRLSCAASGRIFDYYAMGWYRQAPGKERELVARISIGGSTYADSVKGRFTISRDNAKNTVYLQMNSLKPEDSAVDYCADSTIRLVGYRTYWGPRYDYWGQGTQVTVSS | low polyreactivity
12 | QVQLVESGGGLVQAGGSLRLSCAASGRIFDYYAMGWYRQAPGKERELVARITSGGTTNYADSVKGRFTISRDNAKNPVYLQMNSLKPEDTAVYYCAADVYGTVRRVGWYYVGEGYDYWGQGTQVTVSS | low polyreactivity
13 | QVQLVESGGGLVQAGGSLRLSCAASGRIFEDNGMGWYRQAPGKEREFVATISWDGDRTYYADSVKGRFTISRDNAKNTVYFQMNSLKPEDTAVYYCNADLPLWPFRGYEYWGQGTQVTVSS | low polyreactivity
14 | QVQLVESGGGLVQAGGSLRLSCAASGRIFEDYMVWYRHAPGKDRELVAAIRWSGGGTYYADSVKGRFTISRDNAKNTVYLQMTSLKPEDTAVYYCATPGTGSVEVYGYWGQGTQVTVSS | low polyreactivity
15 | QVQLVESGGGLVQAGGSLRLSCAASGRIFEGYAMGWYRPAPGKQRELVAAISKSGGRTNYADSVKGRFTISRDNAKNTVYLQMNSLKPEDSAVYYCNAGIKYWGSDFFYWGQVTQVTVSS | high polyreactivity
16 | QVQLVESGGGLVQAGGSLRLSCAASGRIFEHNAMGWSRQAPGKEMEFVAAISSSGGSTYYADSVKGRFTISRDNAKNTVYLQMNSLKPEDTAVYYCNAGSTYYERNYWGQGTQVTVSS | low polyreactivity
17 | QVQLVESGGGLVQAGGSLRLSCAASGRIFEINAMGWYRQAPGKERELVAAITRSGGSTYYADSVKGRFTISRDNAKNTVYLQMNSLKPEDTAVYYCAARGRYWYSRYYSWGQGTQVTVSS | high polyreactivity
18 | QVQLVESGGGLVQAGGSLRLSCAASGRIFEPYTMGWYRQAPGKEREFVATITASGDSTYYADSVKGRFTISRDNAKNTVFLQMNSLKPEDTAVYYCAAAPFGGYEYDYWGQGTQVTVSS | high polyreactivity
19 | QVQLVESGGGLVQAGGSLRLSCAASGRIFERNAMGWYRQAPGKERELVAAITYNGGRTYYAVSVKGRFTISRDNAKNTVYLQINSQKPEDTAVYYYNAQSRVTRSSYRGSPRYDYWGQGTQVTVSS | high polyreactivity
20 | QVQLVESGGGLVQAGGSLRLSCAASGRIFERYAMGWYRQAPGKERELVAAISYRGGRTYYADSVKGRFTISRDNAKNTVYLQMNSLKPEDTAVYYCAAVEVRRVADYGFGLLDYWGQGSQVTVSS | high polyreactivity
21 | QVQLVESGGGLVQAGGSLRLSCAASGRIFEVYVMGWYRQAPGKERELVAAITTSGGSTYYADSVKGRFTISRDNAKNTVYLQMNSLKPEDTAVYYCNRYWHLAGSWGQGTQVTVSS | low polyreactivity
22 | QVQLVESGGGLVQAGGSLRLSCAASGRIFEYYAMGWYRQAPGKERELVAAINSSGGSTYYADSVKGRFTISRDNAKNTVYLQMNSLKPEDTAVYYCAARSYASPGWRYEYWGQGTQVTVSS | low polyreactivity

Row | Sequence | polyreactivity (PSR sort gate)
23 | QVQLVESGGGLVQAGGSLRLSCAASGRIFFDYAMGWYRQAPGKERELVADIDWSGGITYYADSVKGRFTISRDNAKNTVYLQMNSLIPEDTAVYYCAADFDELYPTTAYGEFEYWGQGTQVTVSS | high polyreactivity
24 | QVQLVESGGGLVQAGGSLRLSCAASGRIFFDYAMGWYRQAPGKERELVADISYNGGSTNYADSVKGRFTISRDNAKNTLYLQMNSLKPEDTADYYCNRAFVPVYDLDYYWGQGTQVTVSS | low polyreactivity
25 | QVQLVESGGGLVQAGGSLRLSCAASGRIFFGYAMGWYRQAPGKERELVAAITRRGTITHYADSVKGRFTISRDNAKNTVYLQMNSLKPEDTAVYYCNTVYARYSTAPGYNYWGQGTQVTVSS | high polyreactivity
26 | QVQLVESGGGLVQAGGSLRLSCAASGRIFFIYAMGWYRQAPGKERELVAGINRTGGSTYYADSVKGRFTISRDNAKNTVYLQMNSLKPEDTAVYYCAAVSYYASDYRYDYWGQGTQVTVSS | low polyreactivity
27 | QVQLVESGGGLVQAGGSLRLSCAASGRIFFLYAMGWYRQAPGKERELVAAITWSADGTYYADSVKGRFTISRDNAKNTVYLQMNSLKPEDTAVYYCNADAYTTASSYNWWYYYWGQGTQVTVSS | low polyreactivity
28 | QVQLVESGGGLVQAGGSLRLSCAASGRIFFNYAMGWYRQAPGKVRELVASITWRGGNTYYADSVKGRFTISRDNAKNTVYLQMNSLKPEDTAVYYCAASIRRAGRTYYYWGQGTQVTVSS | high polyreactivity
29 | QVQLVESGGGLVQAGGSLRLSCAASGRIFFPYYTMGWYRQAPGKERELVAVISSSGSSTYYADSVKGRFTISRDNAKNTVYLQMNSLKPEDTAVYFCNAYGGVSTRLRGDYWGQGTQVTVSS | high polyreactivity
30 | QVQLVESGGGLVQAGGSLRLSCAASGRIFFRYAMGWYRQAPGKEREFVAAISCTGGSTYYADSVKGRFTISRDNAKNTVYLQMNSLKPEDTAVYYCAASVVSRPTYYAYYYWGQGTQVTVSS | high polyreactivity
31 | QVQLVESGGGLVQAGGSLRLSCAASGRIFFSYDMGWYTQAPGKERELVAAIDYIAGNTYYADSVKGRFTISRDNAKNTVYLQMNSLKPEDTAVYYCAADVLDWYDLLRDDYWGQGTQVTVSS | low polyreactivity
32 | QVQLVESGGGLVQAGGSLRLSCAASGRIFFTNAMGWYRQAPGKERELGAAIRFSGGRTYYADSVKGRFTISGDNAKNTVYLQMNSLKPEDTAVYYCAADPPRTRYRNARFDYWGQGTQVTVSS | high polyreactivity
33 | QVQLVESGGGLVQAGGSLRLSCAASGRIFFTNAMGWYRQAPGKERELVAAIRSSGGRTYYADSVKGRFTISRDNAKNTVYLQMNSLKPEDTAVYYCNVVDGRHISHYNYWGQGTQVTVSS | high polyreactivity
34 | QVQLVESGGGLVQAGGSLRLSCAASGRIFFTNAMGWYRQAPGKERELVAAITSTGSRTYYADSVKGRFTISRDNAKNTVYLQMNSLKPEDTAVYYCNRVSHLDYYWGQGTQVTVSS | high polyreactivity
35 | QVQLVESGGGLVQAGGSLRLSCAASGRIFFTNAMGWYRQAPGKETELVASIDDTGSTNYADSVKGRFTISRDNAKNTVYLQMNSLKPEDTAVYYCNGVYYSYRYGHDYWGQGTQVTVSS | low polyreactivity
36 | QVQLVESGGGLVQAGGSLRLSCAASGRIFFTNDMGWYRQAPGKERELVATITGNGASTFYADSVKGRFTISRDNAKNTVYLQMNSLKPEDSAVYYCNADRSSYPRYDYWGQGTLVTVSS | low polyreactivity
37 | QVQLVESGGGLVQAGGSLRLSCAASGRIFFTYVMGWYRQAPGKEREFVAAITFSDGTTYYADSVKGRFTISRDNAKNTVYLQMNSLKPEDTAVYYCNTDSFYGFVYPWTISSEVDYWGQGTQVTVSS | low polyreactivity
38 | QVQLVESGGGLVQAGGSLRLSCAASGRIFFVNAMGWYRQAPGKERELVAAISRGGSTNYADSVKGRFTISRDNAKNTVYLQMNSLKPEDTAVFYCNADGSSYWYPVPLDGGDYWGQGTQVTVSS | low polyreactivity
39 | QVQLVESGGGLVQAGGSLRLSCAASGRIFFYNDMGWYRQAPGKERELVASISSGTSTYYADSVKGRFTISRDNAKNTVYLQMNSLKPEDTAVYYCATGRPWHYSSATYDYWGQGTQVSVSS | low polyreactivity
40 | QVQLVESGGGLVQAGGSLRLSCAASGRIFGANAMGWYRQAPGKERELVATITYGGTSTYYADSVKGRFTISRDNGKNTVYLQMNSLKPEDTAVSYCAADGYSVFAAILGEYFDSDYWGQGTQVTVSS | low polyreactivity
41 | QVQLVESGGGLVQAGGSLRLSCAASGRIFGANAMGWYRQAPGKERELVAVITGGGGTYYADSVKGRFTISRDNAKNTVYLQMNRLKPEETAVYYCDWPRYYYTYPSHPMDYWGQGTQVTVSS | low polyreactivity
42 | QVQLVESGGGLVQAGGSLRLSCAASGRIFGANARGWYRQAPGKERELVATITYGGTSTYYADSVKGRFTISRDNAKNTVYLQMNSLKPEDTAVYYCAADGYSVFAAILGEYFDYDYWGQGTQVTVSS | low polyreactivity
43 | QVQLVESGGGLVQAGGSLRLSCAASGRIFGAYAMGSYRQAPGKERELVAAIDIRGGKTYYADSVKGRFTISRDYSKNSVYLQMNSMKPEDTAVYYCAADTWYDAYNYWGQGTQVTVSS | low polyreactivity
